Reference: the domain aggregation screens of Martell et al. (2025)

Assay: soluble fraction after stress (log2 fold change); higher = more stays soluble; pooled small domains, quantitative proteomics
Details: stress: pH 4
Summary of the method: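 High-throughput quantitative proteomics was run on pooled custom libraries of small protein domains following pH 4 stress. Fold changes are on a log2 scale; higher values mean more of a domain remained soluble. The fold change in soluble amount is taken as a measure of aggregation propensity.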

Sequence	soluble fraction (log2)
HMVILPGEKMVVKIVQPGKEKGQGVGYLADGTMIVVDSGDKMIGQDVPTEITRVFQTVAGKMLFAVPVD	-0.255
HMGDAIPVPDVSGFSEDQAMNNLRKVGLRPKATYVADDNTAKGYVTGTSPAKNIEVAPDSEVIVYVSSGP	0.241
HMHPTEKNLTSLLADGSFYMNQNKLETAYDTFTKTIELDPSWAEAWNKRATVLYLMGKYELSQADIDQV	-0.176
HMILNPQELGERIRKLRLKRNKTQSYFADMLYISSSYLALIESGKRVPNLDLLIHIAKFTDVTLDYLVFG	-0.573
HMTSPVEDLLDKAIQLYREENFEEAIAKWEEVLALDPSKLEAKFNIEIAQDRIKEKQIQEDLKSS	-0.935
HMLTTVAAQRAALHQEEDITKLREIILKLVPFWGLDGGAYADKETSIQLERQYRESFDQAVSAARRSGQA	-0.234
HMSRMLTVKQREVFDLAMREGYWETPRRITLTMLASLLSVSKSTLSVQLHKIEGTVLSSFSDEVRRRS	-0.011
HMRKMELTEAAEKLIEEPDVVSAYRNMQQIFQQWREIGPVPREQRDEVWSHFKDLMTQVNRRHQAHFEN	-0.258
HMQVRVERSRDKVVISGVNYYIHPVRKGETVYSIARAYGITTQDLVRENPSAAEGLKEGQSIRIPERLVD	0.22
HMYDESVFTGEYHYYYEKLSDDDKLIYRQIYAMMQKRMDGISLNTTDTDNVSRIQQFVLLDNPQF	-2.43
HMRASVTYVVQVNGKLRGKLEVAPDIDPEELKKLALEVENVKHSLQGWTVKKVIVIPGKMVSIAAGK	-0.296
HMDAEETLGARLRRLRQARGLSLAGLAQAAGLSKPSIWAWENGTTAPRRTSLLALARALDVPEQQLTGV	-0.173
HMKPQIRRHEKITALVREHGFMSVEQLARELEVTPQTIRRDIGILSAENVLRRYHGGAALGD	0.148
HMKSEIRKKNSQIILDAAEHEFSVHGYRGTSVQMIADRSGLPKANLHYYYKSKSALYGAVLDRIL	0.109
HMGVNNDIIKHRKLEFMIEMLPDTFTRKEANEIGEGLGISLATLTRYLSSDAFERTGHGRYRKKD	0.139
HMGSNLSFDLSQIIASRYQEKAAELGLTAPSLARTDLSPQEQATAEVVARAIIADYYDQRVAPFNDLIPQ	-1.54
HMPMIQHFHRMISAALGISEKQIVQTLGLLNDGATIPFISRYRKEVTGGLDEVQIESIKTHYEKLNEIAK	-0.999
HMGAQINSPISGTILKYLVKNGDKITKDQPLVNIESMKMENTIKSDKEGIVNNINFKIGDSVNTADTLLTL	0.22
HMAKNIEVPNLVGSTISVARNDLKQLGLHVIVRDSVWSEDKKIDTILEQFPEPGKKLKPEGVVQVVVSI	0.0706
HMPKETFLNLDEEKRQAIINVLLKNFSEQHISQVKVSAIVSGIGMSRGAFYKYFEDLEDAYRFTISYFSA	-0.0967
HMINYYELLKLDMNAAHEEINDAIKLESEKNTIPEDQIRTMKSIFFNTEFKKEYDQRLMNFLLT	-1.28
HMAPELSGEKLWDAQDVAMFLRVKPTTVWSYVSRDGFPAPVSQAGRAGMWSEPLVVQWYLSRPG	-0.16
HMQNKFLDIVGEIEVKAVDYYLLKDTSGLVIKFPKNLVFANGLKIADNKIGLTVSLYGAWVHEET	-0.498
HMTALTTEDLERRFYAKTYEGESAQKRLARLEISVFGELRQGRPESDRLHDLNNAVLEKERAALNAGAVG	-0.0471
HMNTYVLPDALKSQLSVEDTGMLTKQLQALPETLAEGVLDSLSQMLSKNTLQNPVGWMLAVMKRAREGNFN	-0.282

Sequence	soluble fraction (log2)
HMDYADISYKIFMNHIKNGQVERVELSGDPRIMGKLKDGTYFVTDNPRTENFKEFLLLNNVQVIETN	-0.772
HMNNILNYTIAELMEILKIDDLETENVINSSNNLINKSINENNFPLAEFYEDVKNNLIEFIETFDS	-1.08
HMQISDNTILEDAVSRIIDENPKSVSDYFQGKEAVVGFFIGQIMRETKGTANPKIAREIVISHLEAI	-0.819
HMSDFEASDPALLREGMRVQHLNFGKGTVITIEGAGANKKASVAFDGVGTKQLMLRFARLKIIYE	-0.622
HMSLSDADVERLLEVAIDIESLEEREGLYYQANESEPYSGWGKLMYDSGQVERLVPYKDGRWEGLWTIW	-1.18
HMSFGWELYKGKEGIADTDLHPSGWIRIADKRVFAVSEGEFIEKGLEIIVLSVDGNRIVVRELK	-0.445
HMANPRLEYFLSNITPDWNEFSPELKNQLLIENADPYKLEQYILQVSPDMYIEEQNAPGTVRQMAGDITG	-1.54
HMRRSVYQANVLDAIKHLVDQNELATTKAIAEYIGDDYQGNVSRAIRELLADRKIKKLPKVGVLQPYEA	0.127
HMPSLNDRPDDVLYLFSYFLQSFSHRQVSLPKILKKALIQHDWWGNIRELHSVALRYYIFGDTLNGAYDSL	-0.895
HMRKEPSYASDIITRLKEADLIVVEGTLYPLLTRLKKDGLLSYEWRESTQGPPRKYYALTLDGET	-0.895
HMNPLHYKAAHWVREGLFDDLKSFVELETRINSIFEEKDRGDVFEIFIEGYRSFSKWRALVLRLA	-0.44
HMNREEFLSQLERLLYDIPAQEREEALEYYNGYFDDAGKEKEAEVIQELGSPGKVAAIIKADLSG	-0.605
HMPLPLYVQIKESLRGQIFDGTYGEHERLPSENDLMSSFGVSRITVRQALSDLEKEELIFKVPGKGAFVSR	-1.28
HMTMQQGTISRLNHSRGFGFLTTPDGEDLFFHRTNVHETPFARLQVGDRVTYDVQVTPRGTRADKVQLNM	-0.222
HMRNTETMKEIQAFVEDYFFEYHQSPSMQKVADAIGTSKSTAYYYVMEMARNGMLHYDGKTIETPHTQKS	0.285
HMSVPQENKDLLGRSIEIFYAGKTVEAKVTDTGALAPLGRALDLSPATWRAFGASSISDWGVRGVFYRFVA	-0.0838
HMTSTSVKYVNSSSGLNVRKGPSTSYDKVTTLVNGTKVTVISTNNGWSKITSGSITGYVSSQYLSSSS	-0.284
HMNHAPSLMRKIRRGLKEGRNPDDLLVNAKSISDYYYRSLSFYLLAPHFSSKSKQYKQVISLANS	-0.151
HMRAVEGKRLKRLLRTNLIAIERDQILQYPLRKRPLAIVTRAVRATNPDAVIVNDAGDDVFARALDVLLAS	-1.23
HMAYSEEDRRRVREELLTTALKLMSTQGIQHTTVEQVYRSVGISRSFFYAFFPTKEDLIVEAL	-0.0412
HMRYNPETTAGRRGLIIKMLDEYGQVNVNELSRYFNVSEVTVRNDLAYLERKNLLIRARGGAIKTE	0.0289
HMATRLPFGFAKRFGVLVEGKDDQITVYHKDGLQTAVILEIQRYLARPFRFEAVTPEEFERRLGLAYQS	-0.927
HMERPSLDQVLAHAKALGIAPARFVAYADGRWGTGWRLSPHGRARAWEELDRHRNDPLGYRDKLDVALQSG	0.181
HMVGEQISYIPLKFATASEVVKSLTSMFQQQKGIAPIRIVAEERTNAILLLASEADTARVKNLIAMMDKGV	-0.0978
HMQDENAVTYLLEIKNADANDIASVLKTLKSPDADVVVYKTLNMIIFTGQGSEINGLVKVARQLDRK	-1.3

Sequence	soluble fraction (log2)
HMVDPWLEQVHRASAAYATAHGSARIPTTHPDLGWKVVRVRQRHRKGLLSDEWVAKFEALPGWTWEPK	-0.471
HMSSWAEGLTERERHTLMWITKGLSNKLIARELGISDSTVKVYVKNLLRKLNVNSRLELAAWVHTHPL	-0.246
HMQSHIVPDVKSQHIAQAKALLESKQMKAVVIDSNFVKGLPAGIVLDQTPIGGARVKENRTIYLTINTL	0.0867
HMQKKYLAVKEYLLEQINSGAYQPDEPIPPEREMAAMLGVNRMTLRRAVEELMYEGLLIRKKGSGTFLTK	-0.714
HMARRSRADAVRNREALIDAAKAAFTEAGPDVSLEEIARRAGVGIGTLYRHFPTRDAVIEAVYR	-0.206
HMIINLGELLKMLEVNKYQDAMDALDSLIEEGGSLEKIESLHEIRQHTHAMNFREAERLLSILIESEGA	-1.41
HMSKININTITESELKELPISTVKQKAIQDYLIDRGFISNIYDLLDIKEITSDDVSLLKKVVNVKLPY	-0.796
HMQQVLGDVNEDDKVDFLDAIVVLRHDAEIIQLTDNQMKAAEVNKDGKVDFLDAIMILRYDAEIIGS	-0.196
HMPKLVGEVMQTLDALRREKGLSLLLVEQNARAALGVVDRVYVLERGRVVFEGSAKEAMEDQDVMEFYLG	0.0193
HMLPVQGEEVAPGLYKFDFPFLADKRVWEKTINAFKAEHPELKVNYIYTGPDELNSKKKTHVLVYVFTES	-0.122
HMGRFAETVEHIVAAQLARRQGIPTMEQFASFFNVSRATFQRRLGEEGETLEQIKQRVRLRLALELLHP	-0.441
HMYTPDYLSDLMVRMAHHSTAIEGNTLTQGETKSVLVDGYIPRAMDMRELNEVLNYKAFMTFLVE	-0.35
HMKSNIIPLSLKKPQRLDIFLTNYFVDLSRTQIKKMITDGNIKVNDLIAKPSLKLIGDEIIFYTLPK	-0.698
HMQMSDTSMIRDLVLQVLAENPQSIEDFKNGKDRAVGFLVGMVMKKSQGKANPQITNQMIVEELKK	-0.277
HMGPVPLASAADMEKFYSHLQQVLDEVDFKDRTGSGHLMARLRRLFQRTVLDQNEINILRGILMAVQGRR	-0.959
HMSEFAYPISLNGKTKFNLALSLALTKEEIEKEVLANADVQKFLNGQTPKKLIVVPGKIVNVV	0.123
HMKALEGMRTVFTLADLATEPVTVEITVLEAFKYTTTLEIVQRPVLREWMTNPSMLIRVYHDASTAE	-0.138
HMNGGPHYLRDVRTSLGLSQADLAKAVGTSANMIHYLESGERALTLKWIRRISEALNVSPMRLIN	-0.0552
HMTDFESYTVRVTATNLNIRKGAGTNFHSAGYIKPGVYTIVEEADGKGATRWGKLKSGMGWISLDYAKK	0.428
HMKLNETIAEARKRKGLTQEQLAQKLYVTRQAVSRWERGEVVPGIDMLKLIAITLEEPIVHLL	-0.679
HMPLLSPRQLDVLSLAAGGLSDAQIAGRLVLSESTVRVHFHHIIEKLGVTDRAGAIAWYEQSRS	-0.378
HMQALDETTVSRIRQKAAARNLLLKVLAGQLGVARPTLSNVLARREAPSAALAARIRAFLDSP	0.159
HMYIDNVTIYDVGFNERIVHALERAGVKNLYDLSQMNFYQLQRIRNLGASSLEKVINRIHSYGILLKNES	-0.761
HMKYGPSTVATLKVARLGEMGAFLDAETGDTSDDILLHKTQQTAPVKVGDEVEVFLYLDPKRRLTASMRV	-1.07
HMDDGARQLVDQLNRLIANPAVSARIIHGYLILEGRVESEWEKTRTLLLAQVAGLPVIDLITVS	-2.12
